Laboratory results taken from IntAct's records for PubMed 22153076.

B1: SH3 domain-binding protein 2 (Mus musculus), Q06649 (parent)
chain: MAAEEMQWPVPMKAIGAQNLLTMPGGVAKAGYLHKKGGTQLQLLKWPLRFVIIHKRCIYYFKSSTSASPQGAFSLSGYNRVMRAAEETTSNNVFPFKIIHISKKHRTWFFSASSEDERKSWMAFVRREIGHFHEKKELPLDTSDSSSDTDSFYGAVERPIDISLSSYPMDNEDYEHEDEDDSYLEPDSPGPMKLEDALTYPPAYPPPPVPVPRKPAFSDLPRAHSFTSKSPSPLLPPPPPKRGLPDTGSAPEDAKDALGLRRVEPGLRVPATPRRMSDPPMSNVPTVPNLRKHPCFRDSVNPGLEPWTPGHGTSSVSSSTTMAVATSRNCDKLKSFHLSSRGPPTSEPPPVPANKPKFLKIAEEPSPREAAKFAPVPPVAPRPPVQKMPMPEATVRPAVLPRPENTPLPHLQRSPPDGQSFRGFSFEKARQPSQADTGEEDSDEDYEKVPLPNSVFVNTTESCEVERLFKATDPRGEPQDGLYCIRNSSTKSGKVLVVWDESSNKVRNYRIFEKDSKFYLEGEVLFASVGSMVEHYHTHVLPSHQSLLLRHPYGYAGPR

Variants of: B1
Settings: with rn146_human RNF146, Q9NTX7
Chain of rn146_human RNF146, Q9NTX7 (Q9NTX7 whole entry): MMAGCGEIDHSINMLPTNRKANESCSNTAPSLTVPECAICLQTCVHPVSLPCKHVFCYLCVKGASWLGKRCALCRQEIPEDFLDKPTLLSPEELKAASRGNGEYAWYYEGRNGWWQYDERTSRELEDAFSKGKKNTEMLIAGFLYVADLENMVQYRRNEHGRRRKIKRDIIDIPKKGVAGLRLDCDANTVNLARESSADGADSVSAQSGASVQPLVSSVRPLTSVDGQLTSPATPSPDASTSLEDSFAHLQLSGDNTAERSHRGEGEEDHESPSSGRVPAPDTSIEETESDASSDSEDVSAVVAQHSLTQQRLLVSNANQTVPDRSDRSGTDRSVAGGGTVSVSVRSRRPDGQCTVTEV

effect of a mutation on the interaction	Variant
decreasing interaction	MAAEEMQWPVPMKAIGAQNLLTMPGGVAKAGYLHKKGGTQLQLLKWPLRFVIIHKRCIYYFKSSTSASPQGAFSLSGYNRVMRAAEETTSNNVFPFKIIHISKKHRTWFFSASSEDERKSWMAFVRREIGHFHEKKELPLDTSDSSSDTDSFYGAVERPIDISLSSYPMDNEDYEHEDEDDSYLEPDSPGPMKLEDALTYPPAYPPPPVPVPRKPAFSDLPRAHSFTSKSPSPLLPPPPPKRGLPDTGSAPEDAKDALGLRRVEPGLRVPATPRRMSDPPMSNVPTVPNLRKHPCFRDSVNPGLEPWTPGHGTSSVSSSTTMAVATSRNCDKLKSFHLSSRGPPTSEPPPVPANKPKFLKIAEEPSPREAAKFAPVPPVAPRPPVQKMPMPEATVRPAVLPRPENTPLPHLQQSPPDGQSFRGFSFEKARQPSQADTGEEDSDEDYEKVPLPNSVFVNTTESCEVERLFKATDPRGEPQDGLYCIRNSSTKSGKVLVVWDESSNKVRNYRIFEKDSKFYLEGEVLFASVGSMVEHYHTHVLPSHQSLLLRHPYGYAGPR [R413Q]

Variants of: B1
Settings: with tnks1_human TNKS

effect of a mutation on the interaction	Variant
disrupting interaction	MAAEEMQWPVPMKAIGAQNLLTMPGGVAKAGYLHKKGGTQLQLLKWPLRFVIIHKRCIYYFKSSTSASPQGAFSLSGYNRVMRAAEETTSNNVFPFKIIHISKKHRTWFFSASSEDERKSWMAFVRREIGHFHEKKELPLDTSDSSSDTDSFYGAVERPIDISLSSYPMDNEDYEHEDEDDSYLEPDSPGPMKLEDALTYPPAYPPPPVPVPRKPAFSDLPRAHSFTSKSPSPLLPPPPPKRGLPDTGSAPEDAKDALGLRRVEPGLRVPATPRRMSDPPMSNVPTVPNLRKHPCFRDSVNPGLEPWTPGHGTSSVSSSTTMAVATSRNCDKLKSFHLSSRGPPTSEPPPVPANKPKFLKIAEEPSPREAAKFAPVPPVAPRPPVQKMPMPEATVRPAVLPRPENTPLPHLQQSPPDGQSFRGFSFEKARQPSQADTGEEDSDEDYEKVPLPNSVFVNTTESCEVERLFKATDPRGEPQDGLYCIRNSSTKSGKVLVVWDESSNKVRNYRIFEKDSKFYLEGEVLFASVGSMVEHYHTHVLPSHQSLLLRHPYGYAGPR [R413Q]
